Test results reported in IntAct's records for PubMed 32514408.

B1: TNF receptor-associated factor 3 (Homo sapiens), Q13114 (parent)
chain: MESSKKMDSPGALQTNPPLKLHTDRSAGTPVFVPEQGGYKEKFVKTVEDKYKCEKCHLVLCSPKQTECGHRFCESCMAALLSSSSPKCTACQESIVKDKVFKDNCCKREILALQIYCRNESRGCAEQLMLGHLLVHLKNDCHFEELPCVRPDCKEKVLRKDLRDHVEKACKYREATCSHCKSQVPMIALQKHEDTDCPCVVVSCPHKCSVQTLLRSELSAHLSECVNAPSTCSFKRYGCVFQGTNQQIKAHEASSAVQHVNLLKEWSNSLEKKVSLLQNESVEKNKSIQSLHNQICSFEIEIERQKEMLRNNESKILHLQRVIDSQAEKLKELDKEIRPFRQNWEEADSMKSSVESLQNRVTELESVDKSAGQVARNTGLLESQLSRHDQMLSVHDIRLADMDLRFQVLETASYNGVLIWKIRDYKRRKQEAVMGKTLSLYSQPFYTGYFGYKMCARVYLNGDGMGKGTHLSLFFVIMRGEYDALLPWPFKQKVTLMLMDQGSSRRHLGDAFKPDPNSSSFKKPTGEMNIASGCPVFVAQTVLENGTYIKDDTIFIKVIVDTSDLPDP
partner: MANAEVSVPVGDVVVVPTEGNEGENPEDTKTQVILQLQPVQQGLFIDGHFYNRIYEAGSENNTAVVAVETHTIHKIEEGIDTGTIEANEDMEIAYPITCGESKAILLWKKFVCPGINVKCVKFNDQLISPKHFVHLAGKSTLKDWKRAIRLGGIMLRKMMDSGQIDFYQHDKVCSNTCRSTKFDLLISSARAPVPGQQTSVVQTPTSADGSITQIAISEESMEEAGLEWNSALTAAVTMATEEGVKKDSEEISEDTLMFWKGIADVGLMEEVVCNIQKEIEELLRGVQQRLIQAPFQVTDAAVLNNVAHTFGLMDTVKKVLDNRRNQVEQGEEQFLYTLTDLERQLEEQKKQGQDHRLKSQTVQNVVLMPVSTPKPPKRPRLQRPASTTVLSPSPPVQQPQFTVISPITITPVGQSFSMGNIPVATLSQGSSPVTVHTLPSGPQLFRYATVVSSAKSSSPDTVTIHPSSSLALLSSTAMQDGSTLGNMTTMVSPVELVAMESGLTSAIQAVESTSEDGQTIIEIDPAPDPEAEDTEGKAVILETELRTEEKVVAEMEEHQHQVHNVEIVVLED

Variants of: B1
Details: with gmeb1_human GMEB1, Q9Y692

effect of a mutation on the interaction	Variant
with no effect	MESSKKMDSPGALQTNPPLKLHTDRSAGTPVFVPEQGGYKEKFVKTVEDKYKAEKAHLVLCSPKQTECGHRFCESCMAALLSSSSPKCTACQESIVKDKVFKDNCCKREILALQIYCRNESRGCAEQLMLGHLLVHLKNDCHFEELPCVRPDCKEKVLRKDLRDHVEKACKYREATCSHCKSQVPMIALQKHEDTDCPCVVVSCPHKCSVQTLLRSELSAHLSECVNAPSTCSFKRYGCVFQGTNQQIKAHEASSAVQHVNLLKEWSNSLEKKVSLLQNESVEKNKSIQSLHNQICSFEIEIERQKEMLRNNESKILHLQRVIDSQAEKLKELDKEIRPFRQNWEEADSMKSSVESLQNRVTELESVDKSAGQVARNTGLLESQLSRHDQMLSVHDIRLADMDLRFQVLETASYNGVLIWKIRDYKRRKQEAVMGKTLSLYSQPFYTGYFGYKMCARVYLNGDGMGKGTHLSLFFVIMRGEYDALLPWPFKQKVTLMLMDQGSSRRHLGDAFKPDPNSSSFKKPTGEMNIASGCPVFVAQTVLENGTYIKDDTIFIKVIVDTSDLPDP [C53A;C56A]
